Data set [1] in a line: Chromatographic characterization of radioactive peptide uptake by tissues (methanol extraction, RP-HPLC). In kind it is in vivo, rat. As to the method: The chromatographic characteristics of the labeled compound associated, in vivo, to target organs were assessed by HPLC.
At selected time points (2 and 180 min.) after administration of tritiated pentapeptide, the anesthetized rats were sacrificed (cardiac blood puncture) and tissues quickly removed on ice. The tissues were immediately homogenized at 4° C. in 5-10 volumes of 0.1 M chlorhydric acid using a potter homogenizer (demineralization of bone tissue was realized after 24-48 h at 4° C. in guanidium hydrochloride and EDTA pretreatment, 4 M and 0.25 M final concentration, respectively). Homogenates were centrifuged for 30 min. at 4° C. and 15,000 g. To determine total radioactivity, aliquots of the supernatant solution were added to 50 volumes of Biofluor (NEN, Dupont de Nemours, France) and counted in a liquid scintillation counter.
To determine the radioactivity in the pentapeptide fraction, aliquots of the tissue extracts were submitted to a methanol-extraction procedure (Rougeot et al., 1994) after neutralization with Tris/HCl pH 8.5 containing 16 mM DTPA (DiethyleneTriaminePenta-Acetic acid, Sigma, France). The methanol phase was removed from the supernatant by partial evaporation, then lyophilization and the reconstituted aqueous phase containing 16 mM DTPA was applied to ODS AQ column (HPLC RP C18 chromatography) (AIT, France). Elution with a linear gradient of 0.1% trifluoro acetic (TFA) in water/0.1% TFA in acetonitrile (Merck, France) from 100/0 (vol/vol) to 50/50 (vol/vol) was performed for 30 min. at a flow rate of 1 ml/min. Fractions were collected every 60 sec. and analyzed for radioactivity using a liquid scintillation counter.

Data set [2] in a line: Pentapeptide metabolic and pharmacokinetic study after i.v. bolus of tritiated pentapeptide. In kind it is in vivo, rat. As to the method: The in vivo time course of distribution, metabolism and elimination of the pentapeptide was investigated in anesthetized adult male rats using physiological concentrations of circulating tritiated pentapeptide.
Anesthetized male rats were given a bolus intravenous injection of 170 pmoles or 110 ng tritiated pentapeptide diluted in 100 μl PBS Dulbecco's. Blood was collected in tubes containing a mixture of peptidase inhibitors described above, via a silastic catheter implanted into the external jugular vein. Blood was withdrawn just before and 2, 4, 6, 8, 10, 20, 30, 45, 60, 90 and 120 min. after peptide administration. Two milliliters of blood per rat were taken in all and the entire urinary bladder content was collected at a last selected point.
The biological samples were submitted to centrifugation and Parapak Q extraction conditions, as described above. Chromatrography using HPLC procedure described above and in the reference (Rougeot et al., 1994) was then applied to each extracted sample. The ODS AQ RP-C18 was used for identification of amino-terminal metabolites and Pep RPC HR C18 (Pharmacia, France) for identification of carboxyl-terminal metabolites. The radioactivity content of samples before and after chromatographic separations was determined using a beta counter (Kontron, MR300).

Data set [3] has as its system pentapeptide binding sites. In words: Cellular localization of 3H-pentapeptide binding sites by light microscopic autoradiography, in vivo radiolabeling. More on the design: species or system rat. As to the method:
The cellular-site localization for physiological concentrations of labeled pentapeptide was investigated by paraffin- or resin-section microscopic autoradiography procedure.
Sixty minutes after ^3H-pentapeptide (555 KBq, 160 ng or 250 pmoles) i.v. administration, the anesthetized male rats were perfused via the jugular veins with ice-cold Krebs Ringer Bicarbonate Glucosed buffer and then 0.5% paraformaldehyde/0.5% glutaraldehyde fixative PBS buffer (plus glucose 1.6%, CaCl2 0.002% and DMSO 1%) (50 ml/5 min. for each). Tissues were rapidly removed and harvested for paraffin sectioning (Paraplast plus-Sherwood medical, OSI, France) or for resin sectioning (histo-resin Leica, France). All sections were cut at 5 microns (Reichert Jung for paraffin and RM2155 Leica for resin sections) and mounted on Superfrost/Plus glass slides (non gelatin-coated). Paraffin was removed with xylene, and sections were carried through a descending, then an ascending ethanol series (from 100 to 50%, VN and reverse). Dried sections were then processed for light microscope autoradiography by attaching nuclear emulsion-coated (Kodak, NTB2, diluted 1:1 with distilled water) coverslips to them. After air drying for 2 hrs at room temperature the autoradiographs were exposed for 6 to 10 weeks in light-tight boxes at 4° C. Radiosensitive coverslips were developed in Kodak D19 (3 min.) developer and fixed in Kodak fixer (3 min.) Sections were counterstained with Harris' hematoxylin (Prolabo, France) and Toluidine blue (Sigma, France), dehydrated and mounted in Eukitt medium. The tissue and overlying silver grains were viewed and photographed with a Leica photomicroscope equipped with bright-field optics (DMRD Leitz, Leica).

For another data set, the system named is peptide binding sites. In words: In vivo displacement experiments with coinjection of 100-fold excess of unlabeled peptide. More on the design: species or system rat. The source says: Biological receptor sites have two essential characteristics that allow specific binding to be identified, in vivo; they have a high affinity for the ligand and the binding is saturable (Whitcomb et al., 1993). Therefore, displacement experiments, using parallel systemic administration of an excess of the corresponding unlabeled peptide has been performed. Furthermore, the specific cellular localization of labeled pentapeptide to target tissues has been identified by section microscopic autoradiography.
The tritium activity was determined as counts/mm^2.
In the case of radioactive quantification of organ sections or acid extracts, using a liquid scintillation counter (MR300 Kontron), the tritium activity was determined as cpm/mg protein. Protein concentration was determined by the Bradford method (Bradford et al., 1976).

For data set [4] the following is noted: rat, in vivo.
Method: Labeled compound i.e. 6.66 MBq, 3 nmoles or 2 mg for whole body autoradiography (WBA) and 370-555 KBq, 170-250 pmoles or 110-160 ng for the pharmacokinetic and cellular-site distribution studies was diluted in 100-200 ml of phosphate-buffered saline (PBS Dulbecco's, Bio Media, France) and administered intravenously into the jugular vein of anesthetized rats (halothan for WBA or pentobarbital for all the other experiments).
The five week-old rats were sacrificed under halothane, at 90 sec., 3, 60 and 240 min. after i.v. injection of 3 nmoles (6.66 MBq or 2 μg) of tritiated pentapeptide. At the selected time, the restrained animal was immediately immersed in a −80° C. mixture of dry ice and isopentane, to prevent artefactual tracer redistribution. After 48 hours in self-sealing plastic stored at −30° C., the animal was then blocked in mounting medium. Whole body sagittal sections (20 mm) of the frozen rat were made at −30° C. with a cryostat (whole body slicing microtome Leitz 400 with a chest mobil freezer Leitz O M, Leica, France). […]
The quantitative determination of the radioactivity in various organ sections was carried out by using a gaseous detector of β-particles, which has recently been developed (Charpak et al., 1989; Tribollet et al., 1991). […] The number of counts per pixel was recorded in the β imager 2200 (Biospace, France) with a surface detector of 20×20 cm^2, followed by computer-assisted image analysis with the β Vision program using a HP Vectra computer. The tritium activity was determined as counts/mm^2. The linearity of this method of detection allowed measurement of the non specific binding of ^3H-pentapeptide, measured in various structures or compartments within the section with apparent non binding sites for the peptide (background tissues, e.g. muscle and cardiac blood except brain and spinal cord) or in the same labeled structure, in displacement experiments. […]
Assessment of tissue peptide targeting was accomplished by a β-radio imager quantification (FIG. 2). […]
A further data set has as its target anti-pentapeptide serum. Description: competitive liquid phase RIA, unlabelled standard displaces 125I-labelled pentapeptide from the antiserum.
The mark [5] stands for this setting: 180 min after injection, DTPA extraction.
The mark [6] stands for this setting: 60 min, 100-fold excess unlabeled peptide.

From patent US6589750B2, “Therapeutic use of the SMR1 protein, the SMR1 maturation products, specifically the QHNPR pentapeptide as well as its biologically active derivatives” (Institut Pasteur, priority 1997, dated 2003) come the findings set out here.

Square brackets hold non-standard residues; d marks the D form. Ends that are not written are not given here. pGlu = O=C1CC[C@@H](C(=O)O)N1

Take “QHNPR (not fully specified (residue 4)) [pentapeptide]”: the “tissue radioactivity extracted from acid homogenates by methanol” value in data set [1] (5-20 min survival time after 3 nmoles 3H-pentapeptide) is given as 72±4%. Further, the “radioactive peptide fraction extracted by methanol with DTPA (16 mM)” value in data set [1] (180 min after injection) is 53±9%. Further, in data set [1] (setting [5]), the “radioactive extract representing metabolites” value is 8±6% and the “radioactive extract representing undissociated peptide complex” value worked out at 29±14%. Also, in data set [1] (180 min after injection, DTPA extraction, target organs), the “radioactivity recovered in RP-HPLC peak of free pentapeptide” value is reported as 52±8%. In data set [2] (anesthetized rats, over a 60 min period, 170 pmoles injected), the “radioactivity eliminated through glomerular filtration” value is 6 pmol. In data set [2] (male rat), the distribution volume is 35-40 ml/100 g. body weight. Besides, the “pentapeptide-binding substance complex as share of circulating peptide fraction” value in data set [2] (plasma, dissociated by acidic pH treatment) is listed as “approximately 45%”. Also, the “time from which plasma concentration is close to basal level” value in data set [2] (single i.v. injection of 110 ng tritiated pentapeptide) was 30 min. Moreover, the “time to maximal plasma level” value in data set [2] (single i.v. injection of 110 ng tritiated pentapeptide, two male rats) is at most 2 min. Besides, in data set [2] (urinary bladder content), the “urine radioactivity that is pentapeptide metabolites” value is reported as “Approximately 80%”. In addition, the “infused pentapeptide metabolized in the bloodstream” value in data set [2] (within 4 min, proteolysis from the amino-terminal part) was 35%. In data set [3] (60 min post-injection), the “cellular localization of label in submandibular tissue” value is on record as “no selective cell association of label was identifiable”, the “cellular localization of silver grains in glandular gastric mucosa” value was “over the chief or peptic cells”, the “cellular localization of silver grains in pancreatic tissue” value is listed as “over the cells of acini” and the “localization of silver grains in upper incisor root” value is listed as “over the entire dentin layer”. In addition, in data set [3] (60 min post-injection of physiological concentration (160 ng)), the “cellular localization of silver grains in kidney” value is listed as “over the epithelial cells of the S3 segment of the straight portion of the proximal tubules”. Also, in the data set with peptide binding sites (setting [6]), the “specific labeling percentage, glandular mucosa of the stomach” value is recorded as 38-61%; the “specific labeling percentage, long bone” value was 29-38%; the “specific labeling percentage, pancreatic lobules” value is listed as 37-55%; the “specific labeling percentage, submandibular lobules” value is given as 51-91%. The “displacement of 3H-pentapeptide uptake within the renal outer medullary” value in the data set with peptide binding sites (60 min post-coinjection of 100-fold excess of unlabeled peptide) is on record as “almost complete displacement”. Also, the “specific labeling percentage, kidney” value with peptide binding sites (FIG. 8-B, depends on analysis method (total tissue count or regional analysis)) was 12 to 92%. Further, in data set [4], the “persistence of label within target tissues” value was over 240 min, the “radioactivity in intestinal content” value is listed as “No radioactivity was found in the intestinal content” and the “tissue to blood ratio” value is given as about 2.
[pGlu]HNPR [[Glp^1] pentapeptide]: in the data set with anti-pentapeptide serum, the 50% displacement of the 125I-labelled pentapeptide is under 570 fmol and the detection limit (80% binding) was 106 fmol.
For QHNPR [[Gln^1] pentapeptide], in that order: under 570 fmol and 106 fmol.
